The text below walks through data of article PMC5182059.

The chains are these.
B1: (1-452)Ric-8A truncation mutant (domain or fragment)
chain: MEPRAVADALETGEEDAVTEALRSFNREHSQSFTFDDAQQEDRKRLAKLLVSVLEQGLSPKHRVTWLQTIRILSRDRSCLDSFASRQSLHALACYADIAISEEPIPQPPDMDVLLESLKCLCNLVLSSPTAQMLAAEARLVVRLAERVGLYRKRSYPHEVQFFDLRLLFLLTALRTDVRQQLFQELHGVRLLTDALELTLGVAPKENPLVILPAQETERAMEILKVLFNITYDSVKREVDEEDAALYRYLGTLLRHCVMADAAGDRTEEFHGHTVNLLGNLPLKCLDVLLALELHEGSLEFMGVNMDVINALLAFLEKRLHQTHRLKECVAPVLSVLTECARMHRPARKFLKAQVLPPLRDVRTRPEVGDLLRNKLVRLMTHLDTDVKRVAAEFLFVLCSESVPRFIKYTGYGNAAGLLAARGLMAGGRPEGQYSEDEDTDTEEYREAKASI
B2: Ric-8A (1-491) P466A (domain or fragment)
chain: MEPRAVADALETGEEDAVTEALRSFNREHSQSFTFDDAQQEDRKRLAKLLVSVLEQGLSPKHRVTWLQTIRILSRDRSCLDSFASRQSLHALACYADIAISEEPIPQPPDMDVLLESLKCLCNLVLSSPTAQMLAAEARLVVRLAERVGLYRKRSYPHEVQFFDLRLLFLLTALRTDVRQQLFQELHGVRLLTDALELTLGVAPKENPLVILPAQETERAMEILKVLFNITYDSVKREVDEEDAALYRYLGTLLRHCVMADAAGDRTEEFHGHTVNLLGNLPLKCLDVLLALELHEGSLEFMGVNMDVINALLAFLEKRLHQTHRLKECVAPVLSVLTECARMHRPARKFLKAQVLPPLRDVRTRPEVGDLLRNKLVRLMTHLDTDVKRVAAEFLFVLCSESVPRFIKYTGYGNAAGLLAARGLMAGGRPEGQYSEDEDTDTEEYREAKASINPVTGRVEEKPPNAMEGMTEEQKEHEAMKLVNMFDKLSR
B3: Ric-8A (1-491) G469A (domain or fragment)
chain: MEPRAVADALETGEEDAVTEALRSFNREHSQSFTFDDAQQEDRKRLAKLLVSVLEQGLSPKHRVTWLQTIRILSRDRSCLDSFASRQSLHALACYADIAISEEPIPQPPDMDVLLESLKCLCNLVLSSPTAQMLAAEARLVVRLAERVGLYRKRSYPHEVQFFDLRLLFLLTALRTDVRQQLFQELHGVRLLTDALELTLGVAPKENPLVILPAQETERAMEILKVLFNITYDSVKREVDEEDAALYRYLGTLLRHCVMADAAGDRTEEFHGHTVNLLGNLPLKCLDVLLALELHEGSLEFMGVNMDVINALLAFLEKRLHQTHRLKECVAPVLSVLTECARMHRPARKFLKAQVLPPLRDVRTRPEVGDLLRNKLVRLMTHLDTDVKRVAAEFLFVLCSESVPRFIKYTGYGNAAGLLAARGLMAGGRPEGQYSEDEDTDTEEYREAKASINPVTGRVEEKPPNPMEAMTEEQKEHEAMKLVNMFDKLSR
B4: Ric-8A (1-491) M467A (domain or fragment)
chain: MEPRAVADALETGEEDAVTEALRSFNREHSQSFTFDDAQQEDRKRLAKLLVSVLEQGLSPKHRVTWLQTIRILSRDRSCLDSFASRQSLHALACYADIAISEEPIPQPPDMDVLLESLKCLCNLVLSSPTAQMLAAEARLVVRLAERVGLYRKRSYPHEVQFFDLRLLFLLTALRTDVRQQLFQELHGVRLLTDALELTLGVAPKENPLVILPAQETERAMEILKVLFNITYDSVKREVDEEDAALYRYLGTLLRHCVMADAAGDRTEEFHGHTVNLLGNLPLKCLDVLLALELHEGSLEFMGVNMDVINALLAFLEKRLHQTHRLKECVAPVLSVLTECARMHRPARKFLKAQVLPPLRDVRTRPEVGDLLRNKLVRLMTHLDTDVKRVAAEFLFVLCSESVPRFIKYTGYGNAAGLLAARGLMAGGRPEGQYSEDEDTDTEEYREAKASINPVTGRVEEKPPNPAEGMTEEQKEHEAMKLVNMFDKLSR
B5: Ric-8A (1-491) E468A (domain or fragment)
chain: MEPRAVADALETGEEDAVTEALRSFNREHSQSFTFDDAQQEDRKRLAKLLVSVLEQGLSPKHRVTWLQTIRILSRDRSCLDSFASRQSLHALACYADIAISEEPIPQPPDMDVLLESLKCLCNLVLSSPTAQMLAAEARLVVRLAERVGLYRKRSYPHEVQFFDLRLLFLLTALRTDVRQQLFQELHGVRLLTDALELTLGVAPKENPLVILPAQETERAMEILKVLFNITYDSVKREVDEEDAALYRYLGTLLRHCVMADAAGDRTEEFHGHTVNLLGNLPLKCLDVLLALELHEGSLEFMGVNMDVINALLAFLEKRLHQTHRLKECVAPVLSVLTECARMHRPARKFLKAQVLPPLRDVRTRPEVGDLLRNKLVRLMTHLDTDVKRVAAEFLFVLCSESVPRFIKYTGYGNAAGLLAARGLMAGGRPEGQYSEDEDTDTEEYREAKASINPVTGRVEEKPPNPMAGMTEEQKEHEAMKLVNMFDKLSR
B6: Ric-8A (1-491) V455A (domain or fragment)
chain: MEPRAVADALETGEEDAVTEALRSFNREHSQSFTFDDAQQEDRKRLAKLLVSVLEQGLSPKHRVTWLQTIRILSRDRSCLDSFASRQSLHALACYADIAISEEPIPQPPDMDVLLESLKCLCNLVLSSPTAQMLAAEARLVVRLAERVGLYRKRSYPHEVQFFDLRLLFLLTALRTDVRQQLFQELHGVRLLTDALELTLGVAPKENPLVILPAQETERAMEILKVLFNITYDSVKREVDEEDAALYRYLGTLLRHCVMADAAGDRTEEFHGHTVNLLGNLPLKCLDVLLALELHEGSLEFMGVNMDVINALLAFLEKRLHQTHRLKECVAPVLSVLTECARMHRPARKFLKAQVLPPLRDVRTRPEVGDLLRNKLVRLMTHLDTDVKRVAAEFLFVLCSESVPRFIKYTGYGNAAGLLAARGLMAGGRPEGQYSEDEDTDTEEYREAKASINPATGRVEEKPPNPMEGMTEEQKEHEAMKLVNMFDKLSR
B7: Ric-8A (1-491) P454A (domain or fragment)
chain: MEPRAVADALETGEEDAVTEALRSFNREHSQSFTFDDAQQEDRKRLAKLLVSVLEQGLSPKHRVTWLQTIRILSRDRSCLDSFASRQSLHALACYADIAISEEPIPQPPDMDVLLESLKCLCNLVLSSPTAQMLAAEARLVVRLAERVGLYRKRSYPHEVQFFDLRLLFLLTALRTDVRQQLFQELHGVRLLTDALELTLGVAPKENPLVILPAQETERAMEILKVLFNITYDSVKREVDEEDAALYRYLGTLLRHCVMADAAGDRTEEFHGHTVNLLGNLPLKCLDVLLALELHEGSLEFMGVNMDVINALLAFLEKRLHQTHRLKECVAPVLSVLTECARMHRPARKFLKAQVLPPLRDVRTRPEVGDLLRNKLVRLMTHLDTDVKRVAAEFLFVLCSESVPRFIKYTGYGNAAGLLAARGLMAGGRPEGQYSEDEDTDTEEYREAKASINAVTGRVEEKPPNPMEGMTEEQKEHEAMKLVNMFDKLSR

The assay deals with myristoylated Gαi1 harboring a hexahistidine tag in the helical domain (rat) (UniProt P10824).
UniProt P10824, sequence (P10824 whole entry, the tested form may be a part): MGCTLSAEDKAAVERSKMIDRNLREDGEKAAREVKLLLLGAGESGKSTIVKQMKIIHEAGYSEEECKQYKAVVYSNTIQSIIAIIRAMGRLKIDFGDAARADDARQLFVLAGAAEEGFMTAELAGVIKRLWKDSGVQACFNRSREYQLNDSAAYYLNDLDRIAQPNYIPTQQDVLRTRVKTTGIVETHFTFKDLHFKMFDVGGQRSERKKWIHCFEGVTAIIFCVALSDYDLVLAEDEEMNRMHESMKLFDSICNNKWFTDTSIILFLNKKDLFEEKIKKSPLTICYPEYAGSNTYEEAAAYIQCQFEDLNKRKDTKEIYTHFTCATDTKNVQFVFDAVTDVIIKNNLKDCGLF
On to B1, for which the v1: initial velocity of GDP to GTPγS exchange at Gαi1•GDP (2 μM) on adding GTPγS (10 μM) and Ric-8A (2 μM), tryptophan fluorescence, 25°C turned out to be 0.86 µM/min; the v2: initial rate of GTPγS binding to pre-formed Gαi1:Ric-8A (2 μM each, incubated 5 min before 10 μM GTPγS), with release of Ric-8A, tryptophan fluorescence, 25°C was 0.39 µM/min.
With B2, the v1: initial velocity of GDP to GTPγS exchange at Gαi1•GDP (2 μM) on adding GTPγS (10 μM) and Ric-8A (2 μM), tryptophan fluorescence, 25°C is 0.47 µM/min; the v2: initial rate of GTPγS binding to pre-formed Gαi1:Ric-8A (2 μM each, incubated 5 min before 10 μM GTPγS), with release of Ric-8A, tryptophan fluorescence, 25°C is 0.34 µM/min.
With B3, the v1: initial velocity of GDP to GTPγS exchange at Gαi1•GDP (2 μM) on adding GTPγS (10 μM) and Ric-8A (2 μM), tryptophan fluorescence, 25°C came to 0.63 µM/min; the v2: initial rate of GTPγS binding to pre-formed Gαi1:Ric-8A (2 μM each, incubated 5 min before 10 μM GTPγS), with release of Ric-8A, tryptophan fluorescence, 25°C stood at 0.26 µM/min.
Regarding B4, the v1: initial velocity of GDP to GTPγS exchange at Gαi1•GDP (2 μM) on adding GTPγS (10 μM) and Ric-8A (2 μM), tryptophan fluorescence, 25°C worked out at 2.17 µM/min; the v2: initial rate of GTPγS binding to pre-formed Gαi1:Ric-8A (2 μM each, incubated 5 min before 10 μM GTPγS), with release of Ric-8A, tryptophan fluorescence, 25°C came to 4.57 µM/min.
For B5, in that order: 3.82 µM/min and 6.23 µM/min.
In turn, B6 yielded a v1: initial velocity of GDP to GTPγS exchange at Gαi1•GDP (2 μM) on adding GTPγS (10 μM) and Ric-8A (2 μM), tryptophan fluorescence, 25°C of 0.82 µM/min; a v2: initial rate of GTPγS binding to pre-formed Gαi1:Ric-8A (2 μM each, incubated 5 min before 10 μM GTPγS), with release of Ric-8A, tryptophan fluorescence, 25°C of 0.25 µM/min.
In the case of B7, the v1: initial velocity of GDP to GTPγS exchange at Gαi1•GDP (2 μM) on adding GTPγS (10 μM) and Ric-8A (2 μM), tryptophan fluorescence, 25°C is 2.88 µM/min; the v2: initial rate of GTPγS binding to pre-formed Gαi1:Ric-8A (2 μM each, incubated 5 min before 10 μM GTPγS), with release of Ric-8A, tryptophan fluorescence, 25°C turned out to be 5.39 µM/min.
